Results on one molecule are retold here after article doi:10.1101/2024.12.06.626481 (bioRxiv, 2024).

The target in this assay is murine IL-21 (mIL-21) (murine, UniProt Q9ES17 18-146). Nature of the assay: BLI. On the technique in general: Biolayer interferometry detects binding as a change in optical thickness at a sensor tip.

B1: biotinylated murine IL-21 receptor (mIL-21R) (receptor)
chain: not shown
modifications: biotinylated (site not stated)
With B1, the binding result was “binds”.
